{"source": "patent US7510715", "about": "(US Dept. of Health and Human Services, dated 2009)", "binders": {"B1": {"name": "human CCR5 on cells (CEM.NKR-CCR5 transfectants; PM1 T cells; PBMCs; macrophages) (receptor)", "chain": "not shown", "notes": "whole, on cells; also called hCCR5"}, "B2": {"name": "Toxoplasma gondii cyclophilin-18 (C-18), recombinant (ligand)", "chain": "not shown"}, "B3": {"name": "human macrophage inflammatory protein 1β (MIP-1β) (ligand, UniProt P13236 24-92, looked up)", "chain": "APMGSDPPTACCFSYTARKLPRNFVVDYYETSSLCSQPAVVFQTKRSKQVCADPSESWVQEYVYDLELN", "notes": "also called MIP-1B; human MIP-1 B"}}, "key": {"[1]": {"molecular_target": "T1, human cyclophilin A (human, UniProt P62937 1-165)", "T1 construct": "also called recombinant human cyclophilin", "T1 sequence (P62937 whole entry)": "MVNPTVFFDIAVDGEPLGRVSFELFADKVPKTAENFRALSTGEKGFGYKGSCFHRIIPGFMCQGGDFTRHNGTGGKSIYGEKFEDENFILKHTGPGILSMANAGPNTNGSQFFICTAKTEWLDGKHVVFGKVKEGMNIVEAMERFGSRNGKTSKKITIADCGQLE", "assay": "competition with 125I-C-18 on CEM.NKR.CCR5 cells (method in paragraph 111)"}, "[2]": {"molecular_target": "B1", "assay": "saturation binding of 125I-C-18 to CEM.NKR-CCR5 cells, 90 minutes at 4° C."}, "[3]": {"molecular_target": "B1", "assay": "saturation binding of 125I-labeled human MIP-1β to CEM.NKR-CCR5 cells, 90 minutes at 4° C.", "method": "The bound fraction was then measured and the dissociation constant for ligand binding calculated using a Graph Pad Prism software program (Mackiev, Cupertino, Calif.). […] Cells were then washed and the bound fraction measured radioactively."}}, "data": [{"binder": "B1", "values": [{"measurement": "binding result", "setting": "[1]", "result": "no binding"}]}, {"binder": "B2", "values": [{"measurement": "Kd", "setting": "[2]", "result": 3.65, "unit": "nM"}]}, {"binder": "B3", "values": [{"measurement": "Kd", "setting": "[3]", "result": 0.559, "unit": "nM"}]}]}
